Assay results published in paper PMC2660430.
Numbering of substitutions follows the chain as printed. Names and notes keep the numbering of the source.

Biological target: PfSAHH (recombinant S-adenosyl-L-homocysteine hydrolase), P50250
Assay: SPR
Details: chain shown with the change; Maximum response at end of analyte injection; SAHH on the sensor surface oxidized with 0.5 mM DTNB; 30 µl of analyte, 10 µM in HBS buffer; pre-injection …; parent: est. 93; read off a plot

Sequence of PfSAHH (recombinant S-adenosyl-L-homocysteine hydrolase), P50250 (P50250 whole entry): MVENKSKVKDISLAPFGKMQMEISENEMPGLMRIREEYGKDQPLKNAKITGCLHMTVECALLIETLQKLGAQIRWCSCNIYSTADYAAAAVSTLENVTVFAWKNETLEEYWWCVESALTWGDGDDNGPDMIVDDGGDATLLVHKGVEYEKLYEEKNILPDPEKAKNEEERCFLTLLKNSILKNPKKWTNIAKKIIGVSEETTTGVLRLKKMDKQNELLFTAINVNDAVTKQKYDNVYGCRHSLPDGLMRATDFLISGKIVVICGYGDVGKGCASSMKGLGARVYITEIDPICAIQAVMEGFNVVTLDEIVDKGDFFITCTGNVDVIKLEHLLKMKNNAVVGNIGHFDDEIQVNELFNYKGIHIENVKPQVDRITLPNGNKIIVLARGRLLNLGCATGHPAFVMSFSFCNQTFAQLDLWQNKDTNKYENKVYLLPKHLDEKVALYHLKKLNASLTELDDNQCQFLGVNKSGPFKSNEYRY

B1: PfGrx1 (wild type glutaredoxin) C32S (protein)
chain: MAGTSEAVKKWVNKIIEENIIAVFAKTECPYSIKAISILKGYNLNSHMHVENIEKNPDMANIQAYLKELTGKSSVPRIFINKDVVGGCDDLVKENDEGKLKERLQKLGLVN
response (RD (normalized)): 98

B2: PfGrx1 (wild type glutaredoxin) C29S; C32S (protein)
chain: B1 chain with C29S
response (RD (normalized)): 59
